± gives the uncertainty stated by the source.
Assay: protein stability index of a GFP-peptide fusion (yeast GPS) (PSI 1-4); higher = more stable; sorted into four equal gates, so the index is relative within each strain
Procedure, shortened: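 Plasmids isolated from each sorting gate were PCR-amplified and Illumina-sequenced, and barcodes assigned the reads to strains. The gates, four of equal size, were set by GFP/Cherry fluorescence ratio on mid-log cultures in leucine-free medium. These cultures were yeast carrying a pooled library of tiled 17-residue yeast protein peptides fused downstream of GFP on a plasmid that also expresses Cherry. The protein stability index is the sum of every gate's read frequency times its gate number.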

## VNETEAILYTKPGHVLQ [YGR119C/NUP57]
doa10∆
  protein stability index: 3 ± 0.15
pdr5∆
  protein stability index: 3.12 ± 0.13
san1∆
  protein stability index: 2.75 ± 0.13
ubr1∆
  protein stability index: 3.66 ± 0.21

## VNGAKNLVVSGPPQSLY [FAS1]
doa10∆
  protein stability index: 2.07 ± 0.1
pdr5∆
  protein stability index: 1.78 ± 0.066
san1∆
  protein stability index: 2.03 ± 0.088
ubr1∆
  protein stability index: 2.2 ± 0.052

## VNLPGGILRRKSESDEL [RRP4]
doa10∆
  protein stability index: 3.31 ± 0.15
pdr5∆
  protein stability index: 3.29 ± 0.15
san1∆
  protein stability index: 2.88 ± 0.1
ubr1∆
  protein stability index: 3.29 ± 0.14

## VPRLFDLVKPKNPKFSN [SMC4]
doa10∆
  protein stability index: 2.54 ± 0.052
pdr5∆
  protein stability index: 2.62 ± 0.061
san1∆
  protein stability index: 2.45 ± 0.091
ubr1∆
  protein stability index: 2.81 ± 0.052

## VPVALKGQGPFTLTYDI [YMR129W/POM152]
doa10∆
  protein stability index: 2.58 ± 0.096
pdr5∆
  protein stability index: 2.95 ± 0.11
san1∆
  protein stability index: 2.83 ± 0.069
ubr1∆
  protein stability index: 2.8 ± 0.061

## VPVRSFKGHSHIVQDCT [ASC1]
doa10∆
  protein stability index: 2.5 ± 0.073
pdr5∆
  protein stability index: 3.11 ± 0.064
san1∆
  protein stability index: 2.91 ± 0.081
ubr1∆
  protein stability index: 2.83 ± 0.049

## VQDALLTNQLYKNHELL [SNF2]
doa10∆
  protein stability index: 3.19 ± 0.068
pdr5∆
  protein stability index: 3.1 ± 0.072
san1∆
  protein stability index: 3.08 ± 0.044
ubr1∆
  protein stability index: 3.14 ± 0.061

## VQGKNLLTNFHGMDFTT [RPS1A]
doa10∆
  protein stability index: 3.42 ± 0.078
pdr5∆
  protein stability index: 3.42 ± 0.055
san1∆
  protein stability index: 3.22 ± 0.045
ubr1∆
  protein stability index: 3.23 ± 0.052

## VQKDTAIIRLHPSIYTQ [POP1]
doa10∆
  protein stability index: 2.73 ± 0.29
pdr5∆
  protein stability index: 2.19 ± 0.11
ubr1∆
  protein stability index: 1.88 ± 0.14

## VQMDKIRKIVRKDENQF [AAR2]
doa10∆
  protein stability index: 3.25 ± 0.17
pdr5∆
  protein stability index: 2.81 ± 0.18

## VREHYLRSDIPCLSRSC [DIS3]
doa10∆
  protein stability index: 2.6 ± 0.051
pdr5∆
  protein stability index: 2.72 ± 0.051
san1∆
  protein stability index: 2.59 ± 0.051
ubr1∆
  protein stability index: 2.44 ± 0.033

## VRELVEKIDGMDVDSVK [RPC82]
doa10∆
  protein stability index: 2.99 ± 0.19
pdr5∆
  protein stability index: 3.41 ± 0.27
san1∆
  protein stability index: 3.34 ± 0.11
ubr1∆
  protein stability index: 3.3 ± 0.064

## VRIDKALELDDTVVSRV [ECM29]
doa10∆
  protein stability index: 2.92 ± 0.11
pdr5∆
  protein stability index: 2.91 ± 0.15
ubr1∆
  protein stability index: 3.13 ± 0.097

## VRIPPDQFHRDTISAIT [RPC25]
doa10∆
  protein stability index: 1.91 ± 0.042
pdr5∆
  protein stability index: 2.43 ± 0.048
san1∆
  protein stability index: 2.02 ± 0.064
ubr1∆
  protein stability index: 1.8 ± 0.032

## VRNACKRLIAHDWLNAL [YCG1]
doa10∆
  protein stability index: 2.74 ± 0.081
pdr5∆
  protein stability index: 2.97 ± 0.1
san1∆
  protein stability index: 2.83 ± 0.075
ubr1∆
  protein stability index: 3.19 ± 0.064

## VRQLYKGKKYQPKDLRA [RPL35A]
doa10∆
  protein stability index: 3.28 ± 0.21
pdr5∆
  protein stability index: 3.17 ± 0.12
san1∆
  protein stability index: 2.59 ± 0.098
ubr1∆
  protein stability index: 2.92 ± 0.12

## VRSLLEVVQTGAKNIEI [PRE6]
doa10∆
  protein stability index: 3.38 ± 0.14
pdr5∆
  protein stability index: 3.29 ± 0.098
san1∆
  protein stability index: 3.06 ± 0.074
ubr1∆
  protein stability index: 3.21 ± 0.069

## VRTNRFDIIEESFKGLQ [ECM29]
doa10∆
  protein stability index: 2.6 ± 0.099
pdr5∆
  protein stability index: 2.47 ± 0.13
san1∆
  protein stability index: 2.18 ± 0.12
ubr1∆
  protein stability index: 2.26 ± 0.1

## VRYEEKRELKQLLEKAP [BRR2]
doa10∆
  protein stability index: 1.86 ± 0.093
pdr5∆
  protein stability index: 2.35 ± 0.084
san1∆
  protein stability index: 1.89 ± 0.18
ubr1∆
  protein stability index: 2.4 ± 0.12

## VRYTTSVMPPNEVYSAY [DLS1]
doa10∆
  protein stability index: 2.83 ± 0.062
pdr5∆
  protein stability index: 3.12 ± 0.069
san1∆
  protein stability index: 2.48 ± 0.059
ubr1∆
  protein stability index: 2.9 ± 0.061

## VSANTPKSLNSNININV [SWI1]
doa10∆
  protein stability index: 3.14 ± 0.11
pdr5∆
  protein stability index: 2.64 ± 0.12
san1∆
  protein stability index: 2.84 ± 0.12
ubr1∆
  protein stability index: 2.87 ± 0.093

## VSDHLDAIYRELTKNPN [SMC1]
doa10∆
  protein stability index: 2.87 ± 0.23

## VSIKDSTGCVVGLSQPD [YMR129W/POM152]
doa10∆
  protein stability index: 2.09 ± 0.047
pdr5∆
  protein stability index: 2.32 ± 0.058
san1∆
  protein stability index: 2.05 ± 0.066
ubr1∆
  protein stability index: 2.28 ± 0.036

## VSIVKLDTQLITLLPSS [SNF12]
doa10∆
  protein stability index: 1.73 ± 0.051
pdr5∆
  protein stability index: 1.9 ± 0.05
san1∆
  protein stability index: 1.95 ± 0.084
ubr1∆
  protein stability index: 1.97 ± 0.051

## VSKFYDKINQLSVVKYL [RPN9]
doa10∆
  protein stability index: 2.25 ± 0.12
pdr5∆
  protein stability index: 1.75 ± 0.083
san1∆
  protein stability index: 1.31 ± 0.11
ubr1∆
  protein stability index: 1.7 ± 0.083

## VSKMEKAEKTLKSTKHS [SMC4]
doa10∆
  protein stability index: 2.69 ± 0.052
pdr5∆
  protein stability index: 2.42 ± 0.044
san1∆
  protein stability index: 2.33 ± 0.042
ubr1∆
  protein stability index: 2.83 ± 0.031

## VSLSQLLFIVGQVAIKT [YCS4]
doa10∆
  protein stability index: 1.85 ± 0.062
pdr5∆
  protein stability index: 2.27 ± 0.062
san1∆
  protein stability index: 1.71 ± 0.088
ubr1∆
  protein stability index: 2.13 ± 0.046

## VSNPLIQRFFALHYLVP [COB]
doa10∆
  protein stability index: 1.86 ± 0.054
pdr5∆
  protein stability index: 1.88 ± 0.059
san1∆
  protein stability index: 2.32 ± 0.072
ubr1∆
  protein stability index: 1.2 ± 0.041

## VSPTVGKLFSDIKVLKR [YIL149C/MLP2]
doa10∆
  protein stability index: 2.96 ± 0.08
pdr5∆
  protein stability index: 3.29 ± 0.077
san1∆
  protein stability index: 3.11 ± 0.06
ubr1∆
  protein stability index: 3.17 ± 0.039

## VSTSSGAAANNNDQKRQ [YJL041W/NSP1]
doa10∆
  protein stability index: 3.37 ± 0.084
pdr5∆
  protein stability index: 3.17 ± 0.073
san1∆
  protein stability index: 3.27 ± 0.035
ubr1∆
  protein stability index: 3.45 ± 0.069

## VTADTVILFDSDWNPQA [ISW2]
doa10∆
  protein stability index: 3.08 ± 0.071
pdr5∆
  protein stability index: 2.76 ± 0.058
san1∆
  protein stability index: 2.81 ± 0.089
ubr1∆
  protein stability index: 2.52 ± 0.044

## VTAEDFKQAKERVMKNK [RPT2]
doa10∆
  protein stability index: 3.69 ± 0.23
pdr5∆
  protein stability index: 3.52 ± 0.12
san1∆
  protein stability index: 3.52 ± 0.11
ubr1∆
  protein stability index: 3.42 ± 0.11

## VTALEVLSLGRPNLPTH [RGR1]
doa10∆
  protein stability index: 2.93 ± 0.14
san1∆
  protein stability index: 2.18 ± 0.14
ubr1∆
  protein stability index: 2.33 ± 0.079

## VTIIEPKEEEPILAPSV [RPS3]
doa10∆
  protein stability index: 3.09 ± 0.13
pdr5∆
  protein stability index: 2.59 ± 0.22
san1∆
  protein stability index: 3.01 ± 0.14
ubr1∆
  protein stability index: 2.67 ± 0.13

## VTIWYRAPELLLGARHY [SSN3]
doa10∆
  protein stability index: 1.9 ± 0.1
pdr5∆
  protein stability index: 1.85 ± 0.096
san1∆
  protein stability index: 2.07 ± 0.15
ubr1∆
  protein stability index: 1.9 ± 0.072

## VTKITDMLLHKYYIVSS [SRB8]
doa10∆
  protein stability index: 1.45 ± 0.076
pdr5∆
  protein stability index: 1.14 ± 0.068
san1∆
  protein stability index: 1.65 ± 0.15
ubr1∆
  protein stability index: 1.57 ± 0.077

## VTKWTNQLTESASHFEQ [YJL041W/NSP1]
doa10∆
  protein stability index: 2.85 ± 0.13
pdr5∆
  protein stability index: 3.19 ± 0.099
san1∆
  protein stability index: 3.16 ± 0.091
ubr1∆
  protein stability index: 2.83 ± 0.098

## VTLASILTTAVGLVSPS [RPN1]
doa10∆
  protein stability index: 1.98 ± 0.13
pdr5∆
  protein stability index: 1.55 ± 0.081
san1∆
  protein stability index: 2.25 ± 0.19
ubr1∆
  protein stability index: 2.85 ± 0.087

## VTLRKSLYTNTSRKALE [RPL3]
doa10∆
  protein stability index: 2.66 ± 0.069
pdr5∆
  protein stability index: 2.26 ± 0.059
san1∆
  protein stability index: 1.78 ± 0.078
ubr1∆
  protein stability index: 1.78 ± 0.072

## VTNDDKSDDDDHTVDEI [SRB8]
doa10∆
  protein stability index: 2.67 ± 0.077
pdr5∆
  protein stability index: 2.8 ± 0.085
san1∆
  protein stability index: 3.07 ± 0.094
ubr1∆
  protein stability index: 3.01 ± 0.045

## VTRFDEKQIEELLDNCI [SRB6]
doa10∆
  protein stability index: 2.9 ± 0.21
san1∆
  protein stability index: 3.21 ± 0.16
ubr1∆
  protein stability index: 3.33 ± 0.12

## VTVFLFMLILALFVFYS [COB]
doa10∆
  protein stability index: 2.32 ± 0.067
pdr5∆
  protein stability index: 1.8 ± 0.042
san1∆
  protein stability index: 2.27 ± 0.057
ubr1∆
  protein stability index: 1.99 ± 0.039

## VVARRSNSANVSSPESE [ITC1]
doa10∆
  protein stability index: 3.19 ± 0.05
pdr5∆
  protein stability index: 3.35 ± 0.053
san1∆
  protein stability index: 3.25 ± 0.036
ubr1∆
  protein stability index: 3.18 ± 0.035

## VVDRESDIPKTTVQVAE [PRE4]
doa10∆
  protein stability index: 2.6 ± 0.11
pdr5∆
  protein stability index: 2.99 ± 0.1
san1∆
  protein stability index: 2.8 ± 0.13
ubr1∆
  protein stability index: 3.06 ± 0.076

## VVEACGNIVAELAQDPQ [YCS4]
doa10∆
  protein stability index: 2.75 ± 0.082
pdr5∆
  protein stability index: 3.38 ± 0.15
san1∆
  protein stability index: 3.04 ± 0.1
ubr1∆
  protein stability index: 2.12 ± 0.093

## VVKGRVEKTLLSDVAFY [RPO31]
doa10∆
  protein stability index: 2.16 ± 0.22
pdr5∆
  protein stability index: 3.14 ± 0.23
ubr1∆
  protein stability index: 2.52 ± 0.15

## VVRRRFRGNISQPKIGY [RPL32]
doa10∆
  protein stability index: 2.85 ± 0.096
pdr5∆
  protein stability index: 2.88 ± 0.06
san1∆
  protein stability index: 2.9 ± 0.067
ubr1∆
  protein stability index: 2.92 ± 0.05

## VVSCSQHGFEVQVGPMK [RPB7]
doa10∆
  protein stability index: 3.09 ± 0.12
pdr5∆
  protein stability index: 3.15 ± 0.098
san1∆
  protein stability index: 3.02 ± 0.089
ubr1∆
  protein stability index: 3.23 ± 0.12

## VVVKNWGAETDELSMIM [RPS12]
doa10∆
  protein stability index: 3.35 ± 0.14
pdr5∆
  protein stability index: 3.4 ± 0.14
san1∆
  protein stability index: 3.23 ± 0.087
ubr1∆
  protein stability index: 3.15 ± 0.14

## VYANNPEVSDDGGLEEE [SIR3]
doa10∆
  protein stability index: 2.97 ± 0.13
pdr5∆
  protein stability index: 2.87 ± 0.12
san1∆
  protein stability index: 2.52 ± 0.14
ubr1∆
  protein stability index: 3.04 ± 0.09

Source: the supplement of paper PMC9732359
